Reference: patent US12269859B2, “Synthetic immune receptors and methods of use thereof” (Angeles Therapeutics, Inc., priority 2016, dated 2025)

Assays:
[1] = FACS detection of CARs and SIRs by Myc and Protein L staining (cell surface expression); format: cell-based, human; conditions: staining with APC-conjugated Protein-L, Jurkat-NFAT-GFP cells
Description: FACS analysis. Mouse Anti-Human c-Myc APC-conjugated Monoclonal Antibody (Catalog #IC3696A) was from R&D Systems (Minneapolis, MN). Biotinylated protein L was purchased from GeneScript (Piscataway, NJ), reconstituted in phosphate buffered saline (PBS) at 1 mg/ml and stored at 4° C. Streptavidin-APC (SA1005) was purchased from ThermoFisher Scientific.
For detection of CARs and SIRs using Myc staining, 1×10^6 cells were harvested and washed three times with 3 ml of ice-cold 1×PBS containing 4% bovine serum albumin (BSA) wash buffer. After wash, cells were resuspended in 0.1 ml of the ice-cold wash buffer containing 10 μl of APC-conjugated Myc antibody and incubated in dark for 1 hour followed by two washings with ice cold wash buffer.
For detection of CARs and SIRs using Protein L staining, 1×10^6 cells were harvested and washed three times with 3 ml of ice-cold 1×PBS containing 4% bovine serum albumin (BSA) wash buffer. After wash, cells were resuspended in 0.1 ml of the ice-cold wash buffer containing 1 μg of protein L at 4° C. for 1 hour. Cells were washed three times with ice-cold wash buffer, and then incubated (in the dark) with 10 μl of APC-conjugated streptavidin in 0.1 ml of the wash buffer for 30 minutes followed by two washings with ice cold wash buffer. FACS was done using FACSVerse analyzer from BD Biosciences.

RAJI cells = experiment: Jurkat NFAT-GFP assay, coculture with RAJI cells; format: cell-based, human
Description: (B) Induction of NFAT promoter driven GFP expression. The control vector- and SIR-expressing Jurkat-NFAT-GFP cocultured for 4-24 hours with the target antigen-expressing cell line (described above) and their ability to bind to the target antigen is assayed by measuring induction of GFP expression using Flow Cytometry. Cellular supernatant is collected and assayed for the induction of cytokines (e.g., IL2).
Jurkat NFAT-GFP Assay For Synthetic Immune Receptors. The Jurkat-NFAT-GFP cells are engineered in such a way that the IL-2 promoter, which carries NFAT binding sites, is cloned upstream of the GFP gene. These cells have been used to study signaling via TCR and CAR. The different SIRs were stably expressed in Jurkat NFAT-GFP cells by lentiviral mediated gene transfer, followed by selection with puromycin. The SIR-expressing Jurkat-NFAT-GFP cells were cocultured with the target cells at E:T ratio of approximately 1:2 for approximately 4 hours to 18 hours. When the interaction between SIRs and their target antigen results in activation of the NFAT pathway, GFP expression is induced.
Induction of GFP expression by coculturing of Jurkat-NFAT-GFP cells expressing different SIR constructs and the different target cells was studied essentially as described previously (Wu, Roybal, Puchner, Onuffer, & Lim, 2015). GFP expression was monitored by FACS analysis. […] In panel B, Jurkat cells expressing SIR targeting CDH6 (Clone ID: 051716-J05), CD276 (Clone ID: 050516-Q06) and Her2/neu (Clone ID: 050516-I03) were incubated with SKOV3 (top) and […] (middle and bottom) cells, respectively. […] The Jurkat-NFAT-GFP cells were engineered to express different SIRs targeting other antigens and the experiment repeated upon coculture with the target cells expressing their respective target antigen. The Jurkat-NFAT-GFP (parental) cells were used as control. […] The names of different SIRs, their SEQ ID NOs, component antigen binding domains and TCR chains can be determined by reference to Tables 7A-7H. A SIR is considered positive in the assay in case the SIR expressing Jurkat-NFAT-GFP cells show greater % GFP positive cells when cultured with the target cell line as compared to parental Jurkat-NFAT-GFP cells. […] The signs +/−, +, 2+ etc. after the name of the cell lines indicate the relative degree of positivity on the Jurkat-NFAT-GFP assay as measured by the % GFP positive cells after culture of the SIR expressing Jurkat-NFAT-GFP cells with that cell line.

[2] = GFP expression upon 18 hour co-culture with RAJI cells, Table 10B
[3] = overnight co-culture with RAJI cells, Table 10C

Molecule	Prt-L-APC (%) [1]	NFAT-GFP (%) (RAJI cells; [2])	NFAT-GFP (%) (RAJI cells; [3])
10492 (protein) MALPVTALLLPLALLLHAARPDVVMTQSPSSLSASVGDRVTITCRASQDISKYLNWYQQKPGKAPKLLIYHTSRLHSGVPSRFSGSGSGTDFTLTISSLQPEDFATYYCQQGNTLPYTFGGGTKVEIKLEDLKNVFPPEVAVFCPSEAEISHTQKATLVCLATGFYPDHVELSWWVNGKEVHSGVSTDPQPLKEQPALNDSRYCLSSRLRVSATFWQNPRNHFRCQVQFYGLSENDEWTQDRAKPVTQIVSAEAWGRADCGFTSESYQQGVLSATILYEILLGKATLYAVLVSALVLMAMVKRKDSRGRAKRSGSGATNFSLLKQAGDVEENPGPTSMDWIWRILFLVGAATGAHSFEQVQLQESGPGLVKPSQTLSLTCTVSGVSLPDYGVSWIRQPPGKGLEWIGVIWGSETTYYNSALKSRVLISVDTSKNQVSLKLSSVTAADTAVYYCARHYYYGGSYAMDYWGQGTTVTVSSTRIQNPDPAVYQLRDCKSSDKSVCLFTDFDSQTNVSQSKDSDVYITDKTVLDMRSMDFKSNSAVAWSNKSDFACANAFNNSIIPEDTFFPSPESSCDVKLVEKSFETDTNLNFQNLSVIGFRILLLKVAGFNLLMTLRLWSS	8%	2.48%	
10493 (protein) MALPVTALLLPLALLLHAARPDVVMTQSPSSLSASVGDRVTITCRASQDISKYLNWYQQKPGKAPKLLIYHTSRLHSGVPSRFSGSGSGTDFTLTISSLQPEDFATYYCQQGNTLPYTFGGGTKVEIKLEDLKNVFPPEVAVFEPSEAEISHTQKATLVCLATGFYPDHVELSWWVNGKEVHSGVSTCPQPLKEQPALNDSRYCLSSRLRVSATFWQNPRNHFRCQVQFYGLSENDEWTQDRAKPVTQIVSAEAWGRADCGFTSESYQQGVLSATILYEILLGKATLYAVLVSALVLMAMVKRKDSRGRAKRSGSGATNFSLLKQAGDVEENPGPTSMDWIWRILFLVGAATGAHSFEQVQLQESGPGLVKPSQTLSLTCTVSGVSLPDYGVSWIRQPPGKGLEWIGVIWGSETTYYNSALKSRVLISVDTSKNQVSLKLSSVTAADTAVYYCARHYYYGGSYAMDYWGQGTTVTVSSTRIQNPDPAVYQLRDSKSSDKSVCLFTDFDSQTNVSQSKDSDVYICDKTVLDMRSMDFKSNSAVAWSNKSDFACANAFNNSIIPEDTFFPSPESSCDVKLVEKSFETDTNLNFQNLSVIGFRILLLKVAGFNLLMTLRLWSS	9%	1.35%	
10495 (protein) MALPVTALLLPLALLLHAARPDVVMTQSPSSLSASVGDRVTITCRASQDISKYLNWYQQKPGKAPKLLIYHTSRLHSGVPSRFSGSGSGTDFTLTISSLQPEDFATYYCQQGNTLPYTFGGGTKVEIKLEDLKNVFPPEVAVFEPCEAEISHTQKATLVCLATGFYPDHVELSWWVNGKEVHSGVSTDPQPLKEQPALNDSRYCLSSRLRVSATFWQNPRNHFRCQVQFYGLSENDEWTQDRAKPVTQIVSAEAWGRADCGFTSESYQQGVLSATILYEILLGKATLYAVLVSALVLMAMVKRKDSRGRAKRSGSGATNFSLLKQAGDVEENPGPTSMDWIWRILFLVGAATGAHSFEQVQLQESGPGLVKPSQTLSLTCTVSGVSLPDYGVSWIRQPPGKGLEWIGVIWGSETTYYNSALKSRVLISVDTSKNQVSLKLSSVTAADTAVYYCARHYYYGGSYAMDYWGQGTTVTVSSTRIQNPDPAVCQLRDSKSSDKSVCLFTDFDSQTNVSQSKDSDVYITDKTVLDMRSMDFKSNSAVAWSNKSDFACANAFNNSIIPEDTFFPSPESSCDVKLVEKSFETDTNLNFQNLSVIGFRILLLKVAGFNLLMTLRLWSS	0%	1.99%	
10494 (protein) MALPVTALLLPLALLLHAARPDVVMTQSPSSLSASVGDRVTITCRASQDISKYLNWYQQKPGKAPKLLIYHTSRLHSGVPSRFSGSGSGTDFTLTISSLQPEDFATYYCQQGNTLPYTFGGGTKVEIKLEDLKNVFPPEVAVFEPSEAEISHTQKATLVCLATGFYPDHVELSWWVNGKEVHSGVSTDPQPLKEQPALNDSRYCLCSRLRVSATFWQNPRNHFRCQVQFYGLSENDEWTQDRAKPVTQIVSAEAWGRADCGFTSESYQQGVLSATILYEILLGKATLYAVLVSALVLMAMVKRKDSRGRAKRSGSGATNFSLLKQAGDVEENPGPTSMDWIWRILFLVGAATGAHSFEQVQLQESGPGLVKPSQTLSLTCTVSGVSLPDYGVSWIRQPPGKGLEWIGVIWGSETTYYNSALKSRVLISVDTSKNQVSLKLSSVTAADTAVYYCARHYYYGGSYAMDYWGQGTTVTVSSTRIQNPDPAVYQLRDSKSSDKSVCLFTDFDSQTNVSQSKDSDVYICDKTVLDMRSMDFKSNSAVAWSNKSDFACANAFNNSIIPEDTFFPSPESSCDVKLVEKSFETDTNLNFQNLSVIGFRILLLKVAGFNLLMTLRLWSS	7%	0.9%	
11245 (protein) MALPVTALLLPLALLLHAARPDIQMTQSPSSLSASVGDRVTITCKASDHINNWLAWYQQKPGQAPKLLIYGATTLETGVPSRFSGSGSGTDYTLTISSLQPEDFATYYCQQSWNTPWTFGQGTKLEIKRLEDLKNVFPPEVAVFEPSKAEIAHTQKATLVCLATGFYPDHVELSWWVNGKEVHSGVCTDPQPLKEQPALNDSRYCLSSRLRVSATFWQNPRNHFRCQVQFYGLSENDEWTQDRAKPVTQIVSAEAWGRADCGITSASYHQGVLSATILYEILLGKATLYAVLVSALVLMAMVKRKDSRGRAKRSGSGATNFSLLKQAGDVEENPGPTSMDWIWRILFLVGAATGAHSFEQVQLQQPGAELVKPGASVKMSCKASGYAFSSYWINWMKQKPGQGLEWIGQIYPGDGDTNYNGKFKGRATLTADTSSSTAYMQLSSLTSEDSAVYFCARSITTVVGCAMDYWGQGTSVTVSSTRIQNPDPAVYQLRDSKSSDKSVCLFTDFDSQTNVSQSKDSDVYITDKCVLDMRSMDFKSNSAVAWSNKSDFACANAFNNSIIPEDTFFPSSDVPCDVKLVEKSFETDTNLNFQNLSVIGFRILLLKVAGFNLLMTLRLWSSRAKRSGSGVKQTLNFDLLKLAGDVESNPGPSRGHMTEYKPTVRLATRDDVPRAVRTLAAAFADYPATRHTVDPDRHIERVTELQELFLTRVGLDIGKVWVADDGAAVAVWTTPESVEAGAVFAEIGPRMAELSGSRLAAQQQMEGLLAPHRPKEPAWFLATVGVSPDHQGKGLGSAVVLPGVEAAERAGVPAFLETSAPRNLPFYERLGFTVTADVEVPEGPRTWCMTRKPGA			71.81%
11240 (protein) MALPVTALLLPLALLLHAARPDIVMTQSPATLSLSPGERATLSCRSSKSLQNVNGNTYLYWFQQKPGQSPQLLIYRMSNLNSGVPDRFSGSGSGTEFTLTISSLEPEDFAVYYCMQHLEYPITFGAGTKLEIKLEEQKLISEEDLGSGEDLKNVFPPEVAVFEPSKAEIAHTQKATLVCLATGFYPDHVELSWWVNGKEVHSGVCTDPQPLKEQPALNDSRYCLSSRLRVSATFWQNPRNHFRCQVQFYGLSENDEWTQDRAKPVTQIVSAEAWGRADCGITSASYHQGVLSATILYEILLGKATLYAVLVSALVLMAMVKRKDSRGRAKRSGSGATNFSLLKQAGDVEENPGPTSMDWIWRILFLVGAATGAHSFEEVQLVESGGGLVKPGGSLKLSCAASGYTFTSYVMHWVRQAPGKGLEWIGYINPYNDGTKYNEKFQGRVTISSDKSISTAYMELSSLRSEDTAMYYCARGTYYYGTRVFDYWGQGTLVTVSSTREQKLISEEDLGSGIQNPDPAVYQLRDSKSSDKSVCLFTDFDSQTNVSQSKDSDVYITDKCVLDMRSMDFKSNSAVAWSNKSDFACANAFNNSIIPEDTFFPSSDVPCDVKLVEKSFETDTNLNFQNLSVIGFRILLLKVAGFNLLMTLRLWSSRAKRSGSGVKQTLNFDLLKLAGDVESNPGPSRGHMTEYKPTVRLATRDDVPRAVRTLAAAFADYPATRHTVDPDRHIERVTELQELFLTRVGLDIGKVWVADDGAAVAVWTTPESVEAGAVFAEIGPRMAELSGSRLAAQQQMEGLLAPHRPKEPAWFLATVGVSPDHQGKGLGSAVVLPGVEAAERAGVPAFLETSAPRNLPFYERLGFTVTADVEVPEGPRTWCMTRKPGA			31.59%
